Values belong to the substance of their own block, whether it stands above or below them.
Experiments:
HIF-1α PAS-B domain [1] = target: HIF-1α PAS-B domain (UniProt Q16665); assay: MST (microscale thermophoresis), labelled HIF-1α PAS-B [part 3 of 4]
His-HIF-1α PAS-B domain = His-HIF-1α PAS-B domain (UniProt Q16665); assay: competition ELISA: inhibition of FLAG-HIF-1β PAS-B binding to plate-bound His-HIF-1α PAS-B
HIF-1α PAS-B domain [2] = target: HIF-1α PAS-B domain (UniProt Q16665); assay: MST
HIF-1α PAS-B domain [3] = target: HIF-1α PAS-B domain (UniProt Q16665); assay: MST (microscale thermophoresis), labelled HIF-1α PAS-B [part 2 of 4]
HIF-1α PAS-B domain [4] = target: HIF-1α PAS-B domain (UniProt Q16665); assay: MST (microscale thermophoresis), labelled HIF-1α PAS-B [part 1 of 4) B]
HIF-1α PAS-B domain [5] = target: HIF-1α PAS-B domain (UniProt Q16665); assay: MST (microscale thermophoresis), labelled HIF-1α PAS-B [part 4 of 4]
HIF-1α PAS-B domain [6] = target: HIF-1α PAS-B domain (UniProt Q16665); assay: MST (microscale thermophoresis), labelled HIF-1α PAS-B [part 3 of 14) B]

HIF-1α PAS-B domain, sequence (Q16665 238-349 limits assumed): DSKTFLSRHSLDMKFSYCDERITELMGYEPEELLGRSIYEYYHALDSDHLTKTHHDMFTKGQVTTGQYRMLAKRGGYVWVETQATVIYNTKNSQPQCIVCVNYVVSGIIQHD
His-HIF-1α PAS-B domain, sequence (Q16665 238-349 limits assumed): as above

Substance: Cyclo-CL-Prop-F(CF3)IF(Br) (peptide)
- EC50 (read off the curve) (HIF-1α PAS-B domain [1]): 1 µM

Substance: cyclo-CK-NL-F(CF3)IF(Br) (Cys lys n-leu phe(CF3) ile phe(4-Br)) (peptide)
- IC50 (His-HIF-1α PAS-B domain): 27.7 µM
- Kd (HIF-1α PAS-B domain [2]): 1.66 µM

Substance: Cyclo-CLLF(CF3)-NV-F(Br) (peptide)
- Kd (HIF-1α PAS-B domain [3]): 22.4 µM

Substance: Cyclo-CL-Aib-F(CF3)IF(Br) (peptide)
- EC50 (read off the curve) (HIF-1α PAS-B domain [4]): 2 µM

Substance: Cyclo-CL-hL-F(CF3)IF(Br) (peptide)
- EC50 (read off the curve) (HIF-1α PAS-B domain [1]): 0.7 µM

Substance: Cyclo-CLLF(CF3)-Prop-F(Br) (peptide)
- Kd (HIF-1α PAS-B domain [3]): 1.16 µM

Substance: Cyclo-CLLY(Me)VY (peptide)
- Kd (HIF-1α PAS-B domain [6]): > 200 µM

Now from value to substance:

- EC50 (read off the curve) (HIF-1α PAS-B domain [3]): 0.6 µM
Substance: Cyclo-CL-NV-F(CF3)IF(Br) (peptide)

- Kd (HIF-1α PAS-B domain [5]): 1.03 µM
Substance: Cyclo-CLLF(CF3)-NL-F(Br) (peptide)

- EC50 (read off the curve) (HIF-1α PAS-B domain [5]): 0.5 µM
Substance: Cyclo-CL-NL-F(CF3)IF(Br) (Cys leu n-leu phe(CF3) ile phe(4-Br)) (peptide)

- Kd (HIF-1α PAS-B domain [1]): 1.92 µM
Substance: Cyclo-CLLF(CF3)-Aib-F(Br) (peptide)

- Kd (HIF-1α PAS-B domain [5]): 0.735 µM
Substance: Cyclo-CLLF(CF3)-hL-F(Br) (Cys leu leu phe(CF3) h-leu phe(4-Br)) (peptide)

Reference: US20260062447A1, “COMPOUNDS” (UNIVERSITY OF SOUTHAMPTON, priority 2022, published 2026)
